Tests used:
Type in all cases: cell-based
HuP-T4 = assay: Cytotoxicity assay, pancreatic cell line panel, onvansertib +/- 1 nM INBRX-109; conditions: HuP-T4; 1 nM INBRX-109 only
Description: (§1) Monolayer cultures of each cell line were harvested for compound screening as detailed below.
(§2) Also on day 2, test and control articles were added.
(§3) On day 4, viability measurements were taken. […] Data was graphed in GraphPad Prism 9.
(§4) The results for a panel of colorectal cancer cell lines are shown in Table 3 and FIGS. 4-6, and the results for a panel of pancreatic cell lines are shown in Table 4 and FIGS. 7 and 8.

SW-1990 = assay: as above; conditions: SW-1990; 1 nM INBRX-109 only
Description: as §1, §2, §3, §4

CFPAC-1 = assay: as above; conditions: CFPAC-1; 1 nM INBRX-109 only
Description: as §1, §2, §3, §4

KP4 = assay: as above; conditions: KP4; 1 nM INBRX-109 only
Description: as §1, §2, §3, §4

MIA PaCa-2 = assay: as above; conditions: MIA PaCa-2; 1 nM INBRX-109 only
Description: as §1, §2, §3, §4

Panc 03.27 = assay: as above; conditions: Panc 03.27; 1 nM INBRX-109 only
Description: as §1, §2, §3, §4

SU.86.86 = assay: as above; conditions: SU.86.86; 1 nM INBRX-109 only
Description: as §1, §2, §3, §4

Capan-2 = assay: as above; conditions: Capan-2; 1 nM INBRX-109 only
Description: as §1, §2, §3, §4

Panc 10.05 = assay: as above; conditions: Panc 10.05; 1 nM INBRX-109 only
Description: as §1, §2, §3, §4

BxPC-3 = assay: as above; conditions: BxPC-3; 1 nM INBRX-109 only
Description: as §1, §2, §3, §4

AsPC-1 = assay: as above; conditions: AsPC-1; 1 nM INBRX-109 only
Description: as §1, §2, §3, §4

Capan-1 = assay: as above; conditions: Capan-1; 1 nM INBRX-109 only
Description: as §1, §2, §3, §4

PANC-1 = assay: as above; conditions: PANC-1; 1 nM INBRX-109 only
Description: as §1, §2, §3, §4

HPAF-II = assay: as above; conditions: 1 nM INBRX-109 only
Description: as §1, §2, §3, §4

PSN-1 = assay: as above; conditions: PSN-1; 1 nM INBRX-109 only
Description: as §1, §2, §3, §4

Panc 05.04 = assay: as above; conditions: Panc 05.04; 1 nM INBRX-109 only
Description: as §1, §2, §3, §4

PL45 = assay: as above; conditions: PL45; 1 nM INBRX-109 only
Description: as §1, §2, §3, §4

SW837 = assay: Cell viability (CellTiter-Glo) cytotoxicity assay, INBRX-109 x onvansertib matrix, 48 h; conditions: SW837
Description: as §1
(§5) Onvansertib: A 10 mg stock of onvansertib was purchased from Selleck Chemicals and was resuspended to 10 mM in DMSO. This was then aliquoted and stored at −80° C. Aliquots were thawed immediately prior to dilution and use in the assay. A 500× master plate of serial dilutions (6-point 5-fold dilutions in 100% DMSO starting at 500 μM, plus a DMSO only control) was prepared and mixed gently with a pipette. To generate a 5× working dilution plate of onvansertib, a 1:100 dilution was performed from the 500× plate into complete media (EMEM).
as §2, §3

LS411N = assay: as above
Description: as §1, §5, §2, §3

SW1463 = assay: as above; conditions: SW1463
Description: as §1, §5, §2, §3

HT-29 = assay: as above; conditions: HT-29
Description: as §1, §5, §2, §3

LS174T = assay: as above
Description: as §1, §5, §2, §3

SW620 = assay: as above; conditions: SW620; INBRX-109 only (Table 1)
Description: as §1, §5, §2, §3

[1] = system: several cancerous cell lines; assay: Previous cytotoxicity assays with several cancerous cell lines

B1: INBRX-109: DR5-binding polypeptide consisting of SEQ ID NO: 7 (two VHH domains and an Fc region); DR5 agonist (protein)
chain: EVQLLESGGGEVQPGGSLRLSCAASGLTFPNYGMGWFRQAPGKEREFVSAIYWSGGTVYYAESVKGRFTISRDNAKNTLYLQMSSLRAEDTAVYYCAVTIRGAATQTWKYDYWGQGTLVTVKPGGSGGSEVQLLESGGGEVQPGGSLRLSCAASGLTFPNYGMGWFRQAPGKEREFVSAIYWSGGTVYYAESVKGRFTISRDNAKNTLYLQMSSLRAEDTAVYYCAVTIRGAATQTWKYDYWGQGTLVTVKPGGGGDKTHTCPPCPAPGGPSVFLFPPKPKDTLMISRTPEVTCVVVDVSHEDPEVKFNWYVDGVEVHNAKTKPREEQYNSTYRVVSVLTVLHQDWLNGKEYKCKVSNKALPAPIEKTISKAKGQPREPQVYTLPPSRDELTKNQVSLTCLVKGFYPSDIAVEWESNGQPENNYKTTPPVLDSDGSFFLYSKLTVDKSRWQQGNVFSCSVMHEALHNHYTQKSLSLSPGK
modifications: INBRX-109
notes: DR5 agonist
- Max Cytotox at 1 nM (HuP-T4): 80.7%
- Max Cytotox at 1 nM (SW-1990): 54.7%
- Max Cytotox at 1 nM (CFPAC-1): 23.8%
- Max Cytotox at 1 nM (KP4): 7.8%
- Max Cytotox at 1 nM (MIA PaCa-2): 77.9%
- Max Cytotox at 1 nM (Panc 03.27): 53.2%
- Max Cytotox at 1 nM (SU.86.86): 92.5%
- Max Cytotox at 1 nM (Capan-2): 11.1%
- Max Cytotox at 1 nM (Panc 10.05): 23.8%
- Max Cytotox at 1 nM (BxPC-3): 51.3%
- Max Cytotox at 1 nM (AsPC-1): 14.5%
- Max Cytotox at 1 nM (Capan-1): 86.9%
- Max Cytotox at 1 nM (PANC-1): 32.6%
- Max Cytotox at 1 nM (HPAF-II): 22.8%
- Max Cytotox at 1 nM (PSN-1): 91.9%
- Max Cytotox at 1 nM (Panc 05.04): 97.0%
- Max Cytotox at 1 nM (PL45): 14.1%
- Max Cytotox (SW837; INBRX-109 + 200 nM onvansertib): 80.64%
- EC50 (SW837; INBRX-109 only (Table 1)): 0.00123 nM
- Max Cytotox (SW837; INBRX-109 only (Table 1)): 6.43%
- Max Cytotox (LS411N; INBRX-109 + 200 nM onvansertib): 88.9%
- EC50 (LS411N; INBRX-109 only (Table 1)): Unstable
- EC50 (SW1463; INBRX-109 + 200 nM onvansertib): 0.00495 nM
- Max Cytotox (SW1463; INBRX-109 + 200 nM onvansertib): 73.74%
- EC50 (SW1463; INBRX-109 only (Table 1)): 0.066 nM
- Max Cytotox (SW1463; INBRX-109 only (Table 1)): 38.14%
- Max Cytotox (HT-29; INBRX-109 + 200 nM onvansertib): 94.94%
- EC50 (HT-29; INBRX-109 only (Table 1)): 0.0116 nM
- Max Cytotox (HT-29; INBRX-109 only (Table 1)): 71.42%
- EC50 (LS174T; INBRX-109 + 200 nM onvansertib): 0.0907 nM
- Max Cytotox (LS174T; INBRX-109 + 200 nM onvansertib): 79.32%
- EC50 (LS174T; INBRX-109 only (Table 1)): 0.0106 nM
- Max Cytotox (LS174T; INBRX-109 only (Table 1)): 59.68%
- EC50 (SW620): 0.00478 nM
- Max Cytotox (SW620): 20.25%
- maximally efficacious concentration [1]: 1 nM

From patent US20250215101A1, “DR5 Agonist and PLK1 Inhibitor or CDK Inhibitor Combination Therapy” (Inhibrx Biosciences, Inc., priority 2022, published 2025)
